Measured values published in publication PMC2754721 (Biochemistry, 2009).

Molecular target: the molecule itself
Test: crystal structure

Protein | stoichiometry N [subunits]
D402N nitroalkane oxidase (enzyme) MVDFKLSPSQLEARRHAQAFANTVLTKASAEYSTQKDQLSRFQATRPFYREAVRHGLIKAQVPIPLGGTMESLVHESIILEELFAVEPATSITIVATALGLMPVILCDSPSLQEKFLKPFISGEGEPLASLMHSEPNGTANWLQKGGPGLQTTARKVGNEWVISGEKLWPSNSGGWDYKGADLACVVCRVSDDPSKPQDPNVDPATQIAVLLVTRETIANNKKDAYQILGEPELAGHITTSGPHTRFTEFHVPHENLLCTPGLKAQGLVETAFAMSAALVGAMAIGTARAAFEEALVFAKSDTRGGSKHIIEHQSVADKLIDCKIRLETSRLLVWKAVTTLEDEALEWKVKLEMAMQTKIYTTDVAVECVIDAMKAVGMKSYAKDMSFPRLLNEVMCYPLFNGGNIGLRRRQMQRVMALEDYEPWAATYGSSKVDKSRL | 4
S276A nitroalkane oxidase (enzyme) MVDFKLSPSQLEARRHAQAFANTVLTKASAEYSTQKDQLSRFQATRPFYREAVRHGLIKAQVPIPLGGTMESLVHESIILEELFAVEPATSITIVATALGLMPVILCDSPSLQEKFLKPFISGEGEPLASLMHSEPNGTANWLQKGGPGLQTTARKVGNEWVISGEKLWPSNSGGWDYKGADLACVVCRVSDDPSKPQDPNVDPATQIAVLLVTRETIANNKKDAYQILGEPELAGHITTSGPHTRFTEFHVPHENLLCTPGLKAQGLVETAFAMAAALVGAMAIGTARAAFEEALVFAKSDTRGGSKHIIEHQSVADKLIDCKIRLETSRLLVWKAVTTLEDEALEWKVKLEMAMQTKIYTTDVAVECVIDAMKAVGMKSYAKDMSFPRLLNEVMCYPLFDGGNIGLRRRQMQRVMALEDYEPWAATYGSSKVDKSRL | 4
